Laboratory results as given in publication PMC9290431.
Where “and” joins values, the source holds several entries; their conditions need not be identical. Equal entries are not always repeated. Where two headings read alike, the source gives them in different places.

Legend:
TDP-43 NTD-NLS (human) [1] = test: AUC
TDP-43 NTD-NLS (human) [2] = test: AUC; remark: listed apart in the source

stoichiometry N (TDP-43 NTD-NLS (human) [1]): 8
stoichiometry N (TDP-43 NTD-NLS (human) [2]): 2 and 4
Substance: TDP-43 NTD-NLS (domain or fragment)
